Measured values: patent US20060165695A1 (Kyowa Kirin, published 2006)

Experiments:
[1] = target: T1, human insulin (manufactured by Wako Pure Chemical Industries) (human, UniProt P01308 25-54; P01308 90-110); assay: competitive ELISA: KM1468 (0.6 µg/ml) on immobilised methylated BSA-hIGF-I or methylated BSA-hIGF-II, insulin as competitor
T1 construct: Bought reagent
Description: Cross reactivity of the purified anti-hIGF antibody KM1468 with hIGF-II and human insulin was examined by the competitive ELISA shown below. As the antigens, hIGF-I (manufactured by Pepro Tech), hIGF-II (manufactured by Pepro Tech) and human insulin (manufactured Wako Pure Chemical Industries) were used.
The methylated BSA-hIGF-I antigen prepared in Example 1(1) or a methylated BSA-hIGF-II antigen prepared in the same manner as in Example 1(1) was immobilized on a plate in accordance with the method shown in Example 1(4), at a concentration of 0.1 μg/ml in the case of the methylated BSA-hIGF-I antigen, or at a concentration of 1.0 μg/ml in the case of the methylated BSA-hIGF-II antigen, KM1468 diluted to 0.6 μg/ml was dispensed therein in 25 μl/well portions, and then each of 4-fold serial dilutions of hIGF-I, hIGF-II or human insulin prepared by starting from 20 μg/ml was dispensed in 25 μl/well portions, mixed and allowed to react at room temperature for 1 hour. After the reaction and subsequent washing with Tween-PBS, 1,000 times-diluted peroxidase-labeled rabbit anti-rat Ig antibody (manufactured by DAKO) was added in 50 μl/well portions as the secondary antibody in the case of the anti-hIGF antibody KM1468. […] The results are represented by relative values (%) wherein OD415 when an antibody alone is added is defined as 100.

[2] = target: T2, human insulin-like growth factor II (hIGF-II) (human, UniProt P01344 25-91); assay: SPR (Biacore 2000), hIGF-II amine-coupled to CM-5 chip, antibody as analyte, 25 °C; KA=Kass/Kdiss
T2 construct: In the ELISA it was immobilised as a conjugate with methylated BSA; In SPR it was amine-coupled to the chip; also called human IGF-II; methylated BSA-hIGF-II (immobilised conjugate)
Procedure: (§1) In order to analyze binding activity of the anti-hIGF antibody KM1468 to an antigen hIGF-I or hIGF-II, binding strengths of the anti-hIGF antibody KM1468, a commercially available anti-hIGF-I antibody sm1.2 and a commercially available anti-hIGF-II antibody S1F2 to hIGF-I and hIGF-II were measured in the following manner using the biosensor Biacore 2000 (manufactured by BIACORE) use of a surface plasmon resonance. HBS-EP (10 mM HEPES, 150 mM NaCl, 3 mM EDTA, 0.005% Tween 20, pH 7.4) (manufactured by BIACORE) was used for the dilution of analytes and as the reaction buffer.
(§2) The reaction was carried out at 25° C. Association rate constant Kass and dissociation constant Kdiss were calculated from the binding reaction curves at respective concentrations, and the binding constant KA (M⁻¹) of each of these antibodies was calculated. The binding constant KA is calculated by KA=Kass/Kdiss.

[3] = target: T3, human insulin-like growth factor I (hIGF-I) (human, UniProt P05019 49-118); assay: SPR (Biacore 2000), hIGF-I amine-coupled to CM-5 chip, antibody as analyte, 25 °C; KA=Kass/Kdiss
T3 construct: mature; In the ELISAs it was immobilised as a conjugate with methylated BSA; In SPR it was amine-coupled to the chip; also called human IGF-I; recombinant hIGF-I
Procedure: as §1, §2

[4] = target: T4, hIGF-I partial peptide p41-56 (human); assay: competitive ELISA: KM1468 (4.0 µg/ml) on immobilised methylated BSA-hIGF-I, peptide as competitor
T4 peptide: CTGIVDEAAFRSADLRR

[5] = target: T5, hIGF-I partial peptide p53-61 (human); assay: as above
T5 peptide: DLRRLEMYC

[6] = target: T6, hIGF-I partial peptide p29-41 (human); assay: as above
T6 peptide: CTGYGSSSRRAPQT

[7] = target: T7, hIGF-I partial peptide p14-30 (human); assay: as above
T7 peptide: CLQFVAGDRGFYFNKPTG

[8] = target: T8, hIGF-I partial peptide p61-70 (human); assay: as above
T8 peptide: CAPLKPAKSA

[9] = target: T9, hIGF-I partial peptide p52-70 (human); assay: as above
T9 peptide: CDLRRLEMYAAPLKPAKSA

[10] = target: T10, hIGF-I partial peptide p36-47 (human); assay: as above
T10 peptide: RRAPQTGIVDEC

[11] = target: T11, hIGF-I partial peptide p1-18 (human); assay: as above
T11 peptide: GPETLSGAELVDALQFVC

[12] = target: T12, hIGF-I partial peptide p24-35 (human); assay: as above
T12 peptide: CYFNKPTGYGSSS

[13] = target: T13, hIGF-I partial peptide p41-56C (human); assay: as above
T13 peptide: CTGIVDECCFRSCDLRR

[14] = target: T2, human insulin-like growth factor II …; assay: SPR (Biacore 2000), ratio of KA values
Procedure: as §1, §2

[15] = target: T3, human insulin-like growth factor I …; assay: SPR (Biacore 2000), ratio of KA values
Procedure: as §1, §2

T2 sequence (P01344 25-91 limits assumed): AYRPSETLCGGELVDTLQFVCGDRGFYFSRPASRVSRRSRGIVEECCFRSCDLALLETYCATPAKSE
T3 sequence (P05019 49-118): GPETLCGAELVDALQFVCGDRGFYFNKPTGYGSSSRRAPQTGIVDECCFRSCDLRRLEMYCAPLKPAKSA
T1 sequence (P01308 25-54 limits assumed, chain 1 of 2): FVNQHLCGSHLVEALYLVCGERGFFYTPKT
T1 sequence (P01308 90-110 limits assumed, chain 2 of 2): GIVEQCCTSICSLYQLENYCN

B1: anti-hIGF rat monoclonal antibody KM1468 (antibody, V domains shown)
VH: EVHLVESGGGLVQPGRSLKLSCAASGFTFSNYYMTWVRQAPTKGLEWVAYISSGGGSTYYRDSVKGRFTISRDNAKSTLYLQMDSLRSEDTATYYCTTEDYGYWFAYWGQGTLVTVSS
VL: EIVLTQSPTTMAASPGEKVTITCRASSSVSYMHWFQQKSGTSPKPWIYGTSKLASGVPDRFSGSGSGTSYSLTISSMEAEDAATYYCLQRSSYPPTFGAGTKLELKR
notes: Rat IgG2b with kappa L chain, purified from ascites; The ranges 20-137 and 23-129 are counted from the first residue of the entry; also called anti-hIGF antibody KM1468; anti-hIGF rat antibody KM1468
[1]
  binding result: no binding
[2]
  Ka: 8.63e+09 M⁻¹
[3]
  Ka: 7.86e+09 M⁻¹
[4]
  binding result: no binding
[5]
  binding result: no binding
[6]
  binding result: no binding
[7]
  binding result: no binding
[8]
  binding result: no binding
[9]
  binding result: no binding
[10]
  binding result: no binding
[11]
  binding result: no binding
[12]
  binding result: no binding
[13]
  binding result: no binding
[14]
  fold KA versus S1F2: ~3.6 fold
  fold KA versus sm1.2: ~120 fold
[15]
  fold KA versus S1F2: ~18 fold
  fold KA versus sm1.2: ~42 fold
